# In article PMC2896673 (Journal of Biomedicine and Biotechnology, 2010):
# B1: human procollagen V proα1(V) chain, produced in HEK-293 cells (natural protein, UniProt P20908 38-1838, looked up)
# chain: QPADLLKVLDFHNLPDGITKTTGFCATRRSSKGPDVAYRVTKDAQLSAPTKQLYPASAFPEDFSILTTVKAKKGSQAFLVSIYNEQGIQQIGLELGRSPVFLYEDHTGKPGPEDYPLFRGINLSDGKWHRIALSVHKKNVTLILDCKKKTTKFLDRSDHPMIDINGIIVFGTRILDEEVFEGDIQQLLFVSDHRAAYDYCEHYSPDCDTAVPDTPQSQDPNPDEYYTEGDGEGETYYYEYPYYEDPEDLGKEPTPSKKPVEAAKETTEVPEELTPTPTEAAPMPETSEGAGKEEDVGIGDYDYVPSEDYYTPSPYDDLTYGEGEENPDQPTDPGAGAEIPTSTADTSNSSNPAPPPGEGADDLEGEFTEETIRNLDENYYDPYYDPTSSPSEIGPGMPANQDTIYEGIGGPRGEKGQKGEPAIIEPGMLIEGPPGPEGPAGLPGPPGTMGPTGQVGDPGERGPPGRPGLPGADGLPGPPGTMLMLPFRFGGGGDAGSKGPMVSAQESQAQAILQQARLALRGPAGPMGLTGRPGPVGPPGSGGLKGEPGDVGPQGPRGVQGPPGPAGKPGRRGRAGSDGARGMPGQTGPKGDRGFDGLAGLPGEKGHRGDPGPSGPPGPPGDDGERGDDGEVGPRGLPGEPGPRGLLGPKGPPGPPGPPGVTGMDGQPGPKGNVGPQGEPGPPGQQGNPGAQGLPGPQGAIGPPGEKGPLGKPGLPGMPGADGPPGHPGKEGPPGEKGGQGPPGPQGPIGYPGPRGVKGADGIRGLKGTKGEKGEDGFPGFKGDMGIKGDRGEIGPPGPRGEDGPEGPKGRGGPNGDPGPLGPPGEKGKLGVPGLPGYPGRQGPKGSIGFPGFPGANGEKGGRGTPGKPGPRGQRGPTGPRGERGPRGITGKPGPKGNSGGDGPAGPPGERGPNGPQGPTGFPGPKGPPGPPGKDGLPGHPGQRGETGFQGKTGPPGPPGVVGPQGPTGETGPMGERGHPGPPGPPGEQGLPGLAGKEGTKGDPGPAGLPGKDGPPGLRGFPGDRGLPGPVGALGLKGNEGPPGPPGPAGSPGERGPAGAAGPIGIPGRPGPQGPPGPAGEKGAPGEKGPQGPAGRDGLQGPVGLPGPAGPVGPPGEDGDKGEIGEPGQKGSKGDKGEQGPPGPTGPQGPIGQPGPSGADGEPGPRGQQGLFGQKGDEGPRGFPGPPGPVGLQGLPGPPGEKGETGDVGQMGPPGPPGPRGPSGAPGADGPQGPPGGIGNPGAVGEKGEPGEAGEPGLPGEGGPPGPKGERGEKGESGPSGAAGPPGPKGPPGDDGPKGSPGPVGFPGDPGPPGEPGPAGQDGPPGDKGDDGEPGQTGSPGPTGEPGPSGPPGKRGPPGPAGPEGRQGEKGAKGEAGLEGPPGKTGPIGPQGAPGKPGPDGLRGIPGPVGEQGLPGSPGPDGPPGPMGPPGLPGLKGDSGPKGEKGHPGLIGLIGPPGEQGEKGDRGLPGPQGSSGPKGEQGITGPSGPIGPPGPPGLPGPPGPKGAKGSSGPTGPKGEAGHPGPPGPPGPPGEVIQPLPIQASRTRRNIDASQLLDDGNGENYVDYADGMEEIFGSLNSLKLEIEQMKRPLGTQQNPARTCKDLQLCHPDFPDGEYWVDPNQGCSRDSFKVYCNFTAGGSTCVFPDKKSEGARITSWPKENPGSWFSEFKRGKLLSYVDAEGNPVGVVQMTFLRLLSASAHQNVTYHCYQSVAWQDAATGSYDKALRFLGSNDEEMSYDNNPYIRALVDGCATKKGYQKTVLEIDTPKVEQVPIVDIMFNDFGEASQKFGFEVGPACFMG
# Molecular target: human procollagen V proα2(V) chain, produced in HEK-293 cells (human, UniProt P05997 27-1499)
# Sequence (P05997 27-1499): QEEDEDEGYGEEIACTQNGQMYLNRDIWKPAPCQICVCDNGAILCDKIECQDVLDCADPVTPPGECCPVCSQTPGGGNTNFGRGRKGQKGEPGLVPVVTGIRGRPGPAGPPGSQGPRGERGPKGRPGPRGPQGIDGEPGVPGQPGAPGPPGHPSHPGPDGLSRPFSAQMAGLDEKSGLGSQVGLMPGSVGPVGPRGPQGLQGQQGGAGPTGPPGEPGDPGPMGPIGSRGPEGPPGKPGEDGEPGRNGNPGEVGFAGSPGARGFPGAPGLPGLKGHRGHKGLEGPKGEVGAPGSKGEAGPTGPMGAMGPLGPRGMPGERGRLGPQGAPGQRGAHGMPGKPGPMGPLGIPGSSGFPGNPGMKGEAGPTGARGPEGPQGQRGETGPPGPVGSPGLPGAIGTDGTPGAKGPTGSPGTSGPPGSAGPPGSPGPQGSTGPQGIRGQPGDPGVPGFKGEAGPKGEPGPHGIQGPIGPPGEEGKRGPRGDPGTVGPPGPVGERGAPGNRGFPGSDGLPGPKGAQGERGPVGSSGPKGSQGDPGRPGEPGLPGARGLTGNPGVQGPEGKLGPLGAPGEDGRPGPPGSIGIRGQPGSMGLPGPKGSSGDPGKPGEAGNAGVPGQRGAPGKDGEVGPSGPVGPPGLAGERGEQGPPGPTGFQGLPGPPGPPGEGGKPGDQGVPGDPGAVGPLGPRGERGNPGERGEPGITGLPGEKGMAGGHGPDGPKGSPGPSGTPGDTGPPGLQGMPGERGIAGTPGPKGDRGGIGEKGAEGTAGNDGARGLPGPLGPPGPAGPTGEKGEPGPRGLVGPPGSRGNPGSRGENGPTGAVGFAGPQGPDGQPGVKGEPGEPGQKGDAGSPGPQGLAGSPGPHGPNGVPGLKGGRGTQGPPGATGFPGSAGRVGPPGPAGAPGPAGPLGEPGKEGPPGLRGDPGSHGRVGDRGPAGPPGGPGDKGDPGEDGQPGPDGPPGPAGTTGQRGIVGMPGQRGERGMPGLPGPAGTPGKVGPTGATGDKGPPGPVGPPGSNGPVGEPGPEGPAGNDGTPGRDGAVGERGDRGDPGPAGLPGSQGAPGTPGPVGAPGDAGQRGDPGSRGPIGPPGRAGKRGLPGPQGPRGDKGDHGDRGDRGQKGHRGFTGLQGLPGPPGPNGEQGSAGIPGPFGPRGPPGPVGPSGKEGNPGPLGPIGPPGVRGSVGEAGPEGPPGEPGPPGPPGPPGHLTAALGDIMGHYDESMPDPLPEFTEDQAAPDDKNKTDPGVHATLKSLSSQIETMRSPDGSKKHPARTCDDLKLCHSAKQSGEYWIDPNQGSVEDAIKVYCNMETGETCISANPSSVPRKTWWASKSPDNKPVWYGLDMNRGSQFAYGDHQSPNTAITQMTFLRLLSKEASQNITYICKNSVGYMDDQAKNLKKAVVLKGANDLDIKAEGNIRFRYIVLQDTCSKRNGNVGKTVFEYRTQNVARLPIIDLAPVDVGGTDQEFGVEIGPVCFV
# Experiment: ion-exchange chromatography (DEAE-cellulose) with Western blot of the fractions; supernatant of medium of co-transfected HEK-293 cells (clone C22) after dialysis against 50 mM Tris-HCl pH 8.6; linear 0–0.6 M NaCl gradient; fractions double probed with mAb 18G5 and polyclonal antibodies to collagen V
# Settings: partners not purified
binder,measurement,value
B1,stoichiometry N,~2
